The target in assay [1] is p97/VCP (valosin-containing protein) (UniProt P55072). The assay can be described thus: co-immunoprecipitation (anti-FLAG beads), immunoblot quantification. The following applies: HEK293 cells; n = 3; parent: est. 1.0; read off a plot. For orientation: Immunoblotting shows a protein as a band on a membrane.
Assay [2] has as its target Lys63-linked polyubiquitin (UniProt P0CG48). The description is as above. Conditions: HEK293 cells; n = 3; parent: est. 1.0; read off a plot.

UniProt P55072, sequence (P55072 whole entry): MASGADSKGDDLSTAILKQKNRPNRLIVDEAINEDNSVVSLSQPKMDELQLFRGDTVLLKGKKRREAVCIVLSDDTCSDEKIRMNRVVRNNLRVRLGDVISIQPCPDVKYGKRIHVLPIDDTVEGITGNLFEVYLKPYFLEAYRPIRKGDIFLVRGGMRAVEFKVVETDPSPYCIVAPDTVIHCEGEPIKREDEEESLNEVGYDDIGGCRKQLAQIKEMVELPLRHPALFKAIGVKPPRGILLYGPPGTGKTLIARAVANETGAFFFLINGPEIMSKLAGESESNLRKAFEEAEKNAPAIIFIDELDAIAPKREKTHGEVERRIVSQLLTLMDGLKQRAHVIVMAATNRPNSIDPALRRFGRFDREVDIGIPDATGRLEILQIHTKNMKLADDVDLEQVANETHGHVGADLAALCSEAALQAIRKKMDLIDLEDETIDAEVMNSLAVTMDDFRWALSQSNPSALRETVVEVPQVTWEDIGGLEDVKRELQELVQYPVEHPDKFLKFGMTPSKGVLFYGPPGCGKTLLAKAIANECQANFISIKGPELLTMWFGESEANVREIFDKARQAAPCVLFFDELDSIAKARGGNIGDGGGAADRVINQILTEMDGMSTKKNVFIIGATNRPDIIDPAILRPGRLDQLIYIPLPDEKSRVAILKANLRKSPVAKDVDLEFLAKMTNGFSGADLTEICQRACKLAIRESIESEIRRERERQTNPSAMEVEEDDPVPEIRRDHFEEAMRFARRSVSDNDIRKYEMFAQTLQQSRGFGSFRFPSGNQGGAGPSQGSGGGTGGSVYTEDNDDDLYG

On to “RHBDL4mycFLAG (from UniProt Q8TEB9) AllY>F”, for which the ratio to parent is 0.22 in assay [1] and 0.36 in assay [2].

Values taken from paper PMC6663880.
